Positions count from the first letter of the chain named.
Assays:
human M-CSF = biological target: T1, human M-CSF (human, UniProt P09603 33-255, limits assumed); test: ELISA
T1 construct: also called M-CSF (human); CSF-1
T1 sequence: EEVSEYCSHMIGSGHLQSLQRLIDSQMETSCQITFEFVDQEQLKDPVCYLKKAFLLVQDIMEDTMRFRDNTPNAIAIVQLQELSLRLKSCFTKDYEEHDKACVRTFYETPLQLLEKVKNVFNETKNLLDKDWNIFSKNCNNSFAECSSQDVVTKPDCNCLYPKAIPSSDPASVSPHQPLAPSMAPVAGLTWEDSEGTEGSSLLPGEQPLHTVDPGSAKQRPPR

[1] = biological target: T2, Recombinant cynomolgus monkey sgM-CSF (cynomolgus (Macaca fascicularis), UniProt P09603 33-255 (human entry), limits assumed); test: ELISA
T2 construct: used also where only 'cynomolgus M-CSF' is printed (ELISA result, SET); also called cynomolgus sgM-CSF; cyno sgM-CSF
T2 chain: T1 sequence with V186M, E192D

Antitrypsin (human) = Antitrypsin (human) (human, UniProt P01009 25-418); test: MSD specificity profiling, coated protein, Camille at 100 nM
Description: (§1) For this specificity profiling test the different proteins and controls were coated on two 384-well MSD plates with a concentration of 1 μg/ml at 4° C. over night. Plates were blocked with BSA and washed three times with PBS with 0.05% (v/v) Tween 20. Antibody samples were diluted to 100 nM and 10 nM in assay buffer (PBS with 0.5% (w/v) BSA, 0.05% (v/v) Tween 20). […] Samples and controls were incubated for three hours at room temperature. The plates were washed three times and 30 μl detection antibody (ECL-labeled anti-human Fab) were added per well and incubated for 1 h. After washing, MSD Read Buffer T with surfactant was added and electrochemiluminescence signals were detected using a Sector Imager 6000 (Meso Scale Discovery, Gaithersburg, Md., USA).

[2] = biological target: Cell surface receptor 1 (human) (human); test: as above
Description: as §1

Cytokine 1 (human) = Cytokine 1 (human) (human); test: as above
Description: as §1

[3] = biological target: Cell surface receptor 2 (human) (human); test: as above
Description: as §1

[4] = biological target: Cell surface receptor 3 (human) (human); test: as above
Description: as §1

[5] = biological target: Trypsin inhibitor (Soybean) (Soybean); test: as above
Description: as §1

Cytochrome c (cow) = Cytochrome c (cow) (cow, UniProt P62894 2-105); test: as above
Description: as §1

Myoglobin (horse) = Myoglobin (horse) (horse, UniProt P68082 2-154); test: as above
Description: as §1

RNase B (cow) = biological target: T3, RNase B (cow) (cow, UniProt P61823 27-150); test: as above
T3 sequence (looked up): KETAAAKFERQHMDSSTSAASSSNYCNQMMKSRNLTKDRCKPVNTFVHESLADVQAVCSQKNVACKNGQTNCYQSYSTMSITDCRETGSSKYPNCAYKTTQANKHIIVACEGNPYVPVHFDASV
Description: as §1

[6] = biological target: Anti-human Fab (Dianova, # 109-005-097); test: as above
Description: as §1

[7] = biological target: T4, Recombinant human sgM-CSF (human, UniProt P09603 33-255); test: Table 12 summary, criterion Binding, Human M-CSF; assay and antibody format not named there
T4 construct: also called human secreted glycosylated M-CSF; Human M-CSF
T4 sequence: T1 sequence
Description: The monovalent affinity of the antibodies of the present disclosure was determined by soluble equilibrium titration (Haenel et al. (2005) Anal Biochem 339, 182-4).

Sequence of Cytochrome c (cow) (P62894 2-105 limits assumed): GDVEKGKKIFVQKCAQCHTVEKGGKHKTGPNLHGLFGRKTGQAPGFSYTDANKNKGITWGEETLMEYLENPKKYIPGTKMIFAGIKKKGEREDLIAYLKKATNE
Sequence of Myoglobin (horse) (P68082 2-154 limits assumed): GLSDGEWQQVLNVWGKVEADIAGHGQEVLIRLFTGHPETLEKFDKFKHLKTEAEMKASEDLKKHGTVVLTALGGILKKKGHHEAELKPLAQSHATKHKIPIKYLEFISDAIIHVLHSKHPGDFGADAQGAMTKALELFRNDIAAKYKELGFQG
Sequence of Antitrypsin (human) (P01009 25-418 limits assumed): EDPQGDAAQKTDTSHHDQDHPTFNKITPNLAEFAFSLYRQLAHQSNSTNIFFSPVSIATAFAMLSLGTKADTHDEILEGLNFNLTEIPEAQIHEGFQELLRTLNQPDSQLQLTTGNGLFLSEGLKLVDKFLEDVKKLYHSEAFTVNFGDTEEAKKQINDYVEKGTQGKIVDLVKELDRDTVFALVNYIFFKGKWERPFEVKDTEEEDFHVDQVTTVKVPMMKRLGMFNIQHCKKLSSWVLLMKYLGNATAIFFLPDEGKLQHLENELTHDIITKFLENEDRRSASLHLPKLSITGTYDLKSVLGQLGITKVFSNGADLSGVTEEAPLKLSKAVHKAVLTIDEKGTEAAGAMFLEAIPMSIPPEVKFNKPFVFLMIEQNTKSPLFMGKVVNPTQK
Sequence of Trypsin inhibitor (Soybean) (Soybean) (P01070 25-205): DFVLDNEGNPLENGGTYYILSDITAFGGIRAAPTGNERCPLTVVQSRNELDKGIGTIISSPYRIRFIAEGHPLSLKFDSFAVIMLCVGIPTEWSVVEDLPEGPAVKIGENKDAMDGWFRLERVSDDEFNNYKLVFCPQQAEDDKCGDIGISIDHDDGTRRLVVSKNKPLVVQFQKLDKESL

B1: Camille (format not stated) (antibody, V domains shown)
VH: QVQLQQSGPGLVKPSQTLSLTCAISGESVSTSSAAWNWIRQSPSRGLEWLGRTYYRSKWKHEYAVSVKSRITINPDTSKNQFSLQLNSVTPEDTAVYYCARDRYYYSAFDYWGQGTLVTVSS
VL: QSALTQPASVSGSPGQSITISCTGTSSDVGGYNSVSWYQQHPGKAPKLLIYAVSNRPSGVSNRFSGSKSGNTASLTISGLQAEDEADYYCASYDERFTRVFGGGTKLTVLG
notes: also called Antibody Camille
- ELISA fluorescence units (human M-CSF): > 35000 units
- ELISA fluorescence units [1]: > 35000 units
- signal normalized to reference antibody MOR03207 (Antitrypsin (human)): 1 ratio
- signal normalized to reference antibody MOR03207 [2]: 1 ratio
- signal normalized to reference antibody MOR03207 (Cytokine 1 (human)): 1 ratio
- signal normalized to reference antibody MOR03207 [3]: 1 ratio
- signal normalized to reference antibody MOR03207 [4]: 1 ratio
- signal normalized to reference antibody MOR03207 [5]: 1 ratio
- signal normalized to reference antibody MOR03207 (Cytochrome c (cow)): 1 ratio
- signal normalized to reference antibody MOR03207 (Myoglobin (horse)): 1 ratio
- signal normalized to reference antibody MOR03207 (RNase B (cow)): 1 ratio
- signal normalized to reference antibody MOR03207 [6]: 1 ratio
- Kd [7]: 0.018 nM

Source: US20180057581A1 (MorphoSys, published 2018)
